Results from PMC5751438 (Cell, 2017).

T1: SBP-tagged Ufd1/Npl4 heterodimer (SBP tag on Ufd1) (S. cerevisiae, UniProt P53044 1-361; P33755 1-580)
T1 sequence (looked up) 1: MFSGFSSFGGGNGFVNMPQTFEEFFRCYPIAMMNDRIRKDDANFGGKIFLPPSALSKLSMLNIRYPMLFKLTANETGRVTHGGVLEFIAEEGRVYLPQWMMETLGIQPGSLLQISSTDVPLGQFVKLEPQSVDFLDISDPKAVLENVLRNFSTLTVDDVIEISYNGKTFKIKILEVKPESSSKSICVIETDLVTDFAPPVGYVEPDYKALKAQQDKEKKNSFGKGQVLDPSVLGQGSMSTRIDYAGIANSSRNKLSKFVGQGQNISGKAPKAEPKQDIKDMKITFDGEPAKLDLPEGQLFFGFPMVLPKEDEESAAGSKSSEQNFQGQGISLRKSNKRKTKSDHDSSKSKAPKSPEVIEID
T1 sequence (looked up) 2: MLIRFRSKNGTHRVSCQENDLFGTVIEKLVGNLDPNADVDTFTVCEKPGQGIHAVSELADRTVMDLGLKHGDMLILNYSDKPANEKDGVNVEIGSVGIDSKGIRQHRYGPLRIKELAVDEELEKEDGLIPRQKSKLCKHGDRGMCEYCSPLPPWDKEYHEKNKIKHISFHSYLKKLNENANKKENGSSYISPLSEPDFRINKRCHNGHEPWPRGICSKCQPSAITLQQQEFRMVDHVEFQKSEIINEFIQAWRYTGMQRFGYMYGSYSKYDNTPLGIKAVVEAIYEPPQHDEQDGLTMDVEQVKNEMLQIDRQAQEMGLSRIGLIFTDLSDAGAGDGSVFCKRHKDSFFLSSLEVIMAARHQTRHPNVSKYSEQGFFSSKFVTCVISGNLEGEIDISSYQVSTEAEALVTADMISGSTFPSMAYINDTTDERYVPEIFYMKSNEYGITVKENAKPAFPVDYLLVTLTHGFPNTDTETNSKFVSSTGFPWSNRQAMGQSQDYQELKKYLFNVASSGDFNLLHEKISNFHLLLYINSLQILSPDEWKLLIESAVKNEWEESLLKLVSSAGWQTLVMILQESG

B1: Cdc48 ATPase (wild type, untagged) (enzyme, S. cerevisiae, UniProt P25694 1-835, looked up)
chain: MGEEHKPLLDASGVDPREEDKTATAILRRKKKDNMLLVDDAINDDNSVIAINSNTMDKLELFRGDTVLVKGKKRKDTVLIVLIDDELEDGACRINRVVRNNLRIRLGDLVTIHPCPDIKYATRISVLPIADTIEGITGNLFDVFLKPYFVEAYRPVRKGDHFVVRGGMRQVEFKVVDVEPEEYAVVAQDTIIHWEGEPINREDEENNMNEVGYDDIGGCRKQMAQIREMVELPLRHPQLFKAIGIKPPRGVLMYGPPGTGKTLMARAVANETGAFFFLINGPEVMSKMAGESESNLRKAFEEAEKNAPAIIFIDEIDSIAPKRDKTNGEVERRVVSQLLTLMDGMKARSNVVVIAATNRPNSIDPALRRFGRFDREVDIGIPDATGRLEVLRIHTKNMKLADDVDLEALAAETHGYVGADIASLCSEAAMQQIREKMDLIDLDEDEIDAEVLDSLGVTMDNFRFALGNSNPSALRETVVESVNVTWDDVGGLDEIKEELKETVEYPVLHPDQYTKFGLSPSKGVLFYGPPGTGKTLLAKAVATEVSANFISVKGPELLSMWYGESESNIRDIFDKARAAAPTVVFLDELDSIAKARGGSLGDAGGASDRVVNQLLTEMDGMNAKKNVFVIGATNRPDQIDPAILRPGRLDQLIYVPLPDENARLSILNAQLRKTPLEPGLELTAIAKATQGFSGADLLYIVQRAAKYAIKDSIEAHRQHEAEKEVKVEGEDVEMTDEGAKAEQEPEVDPVPYITKEHFAEAMKTAKRSVSDAELRRYEAYSQQMKASRGQFSNFNFNDAPLGTTATDNANSNNSAPSGAGAAFGSNAEEDDDLYS

Tests used:
[1] = target: T1, SBP-tagged Ufd1/Npl4 heterodimer (SBP …); test: pull-down
[2] = target: B1; test: pull-down

Row | binding result [1] | binding result [2] | Binder
1 | binds |  | B1
2 |  | binds | Otu1 (wild type) (enzyme, UniProt P43558 1-301, looked up) MKLKVTGAGINQVVTLKQDATLNDLIEHINVDVKTMRFGYPPQRINLQGEDASLGQTQLDELGINSGEKITIESSDSNESFSLPPPQPKPKRVLKSTEMSIGGSGENVLSVHPVLDDNSCLFHAIAYGIFKQDSVRDLREMVSKEVLNNPVKFNDAILDKPNKDYAQWILKMESWGGAIEIGIISDALAVAIYVVDIDAVKIEKFNEDKFDNYILILFNGIHYDSLTMNEFKTVFNKNQPESDDVLTAALQLASNLKQTGYSFNTHKAQIKCNTCQMTFVGEREVARHAESTGHVDFGQNR
